Assay results taken from CN113683686A (INST PASTEUR SHANGHAI CAS, dated 2021).

B1: 单抗2H2 (anti-SARS-CoV-2 RBD mouse monoclonal antibody 2H2) (antibody, V domains shown)
VH: QVQLKQSGPSLVQPSQSLSITCTVSGFSLTSYGVHWVRQSPGKGLEWLGVMWRGGNTDYNAAFMSRLSITKDNSKSQVFFKMNSLQTDDTAIYYCAKNGGAHAMDFWGQGTSVTVSS
VL: NIVLTQSPASLAVSLGQRATISCRASESVDSYGNSFLHWYQQKPGQPPKLLIYLASNLESGVPARFSGSGSRTDFTLTIDPVEADDAATYYCQQNNEDPFTFGSGTKLEIK
B2: 单抗3C1 (anti-SARS-CoV-2 RBD mouse monoclonal antibody 3C1) (antibody, V domains shown)
VH: EVQLQESGPSLVKPSQTLSLTCSVTGDSITNGYWNWIRKFPGNKLEYMGYISYSGSTYYSPSLKSRISITRDTSKNQHYLQLNSVTSEDTATYYCASDYHGSKYYFDYWGQGTTLTVSS
VL: DIVMTQSHKFMSTSVGHRVSITCKASQDVGNDVAWYQQKPGQSPKLLIYWASTRHTGVPDRFTGSGSGTDFTLTISNVQSEDLADYFCQQYNRYPYTFGGGTKLEIK

Columns and labels:
[1] = biological target: 重组的SARS-CoV-2 RBD蛋白 (S蛋白320-550位残基, 组氨酸标签) (SARS-CoV-2, UniProt P0DTC2 320-550); assay: BLI (Octet RED96), His-tagged RBD on Ni-NTA sensor, antibody in solution
[2] = biological target: SARS-CoV-2 S蛋白 (on MLV-based SARS-CoV-2 pseudovirus) (SARS-CoV-2, UniProt P0DTC2 14-1273); assay: cell-based or functional assay

Binder	Kd [1]	半数抑制浓度(IC50), SARS-CoV-2假病毒中和试验 (VeroE6, luciferase) [2]
B1	7.5 nM	0.005 µg/mL
B2	13 nM	1.91 µg/mL
